Source: publication PMC1277823, “nfi-1 affects behavior and life-span in C. elegans but is not essential for DNA replication or survival”

B1: 2.6 (dsDNA)
DNA 1: AGGTCTGGCTTTGGGCCAAGAGCCGC
DNA 2: GCGGCTCTTGGCCCAAAGCCAGACCT
B2: C2 (dsDNA)
DNA 1: AGGTCTCGCTTTGGGCCAAGAGCCGC
DNA 2: GCGGCTCTTGGCCCAAAGCGAGACCT

Molecular target: hNFI-C220-H6 (human, UniProt P08651 1-220)
Experiment: EMSA; ~5 ng protein; EMSA on 6.5% non-denaturing polyacrylamide gel (Fig. 2A); buffer, salt, pH and temperature not given (as in cited refs 38, 54)
Details: protein: recombinant; tags: 6xHis; chain copies: 2

Sequence of hNFI-C220-H6 (P08651 1-220): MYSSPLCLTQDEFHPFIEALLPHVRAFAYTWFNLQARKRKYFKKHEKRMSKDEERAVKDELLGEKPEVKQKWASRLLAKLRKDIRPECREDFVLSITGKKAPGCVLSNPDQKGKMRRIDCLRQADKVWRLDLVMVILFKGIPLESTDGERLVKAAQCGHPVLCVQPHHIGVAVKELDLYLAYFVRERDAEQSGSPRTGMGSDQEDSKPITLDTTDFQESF

Row | Binder | binding result
1 | B1 | binds
2 | B2 | no binding
